B1: Ac-DPETGEL-NH2 (peptide)
peptide: Ac-DPETGEL-NH2
notes: peptide found by phage display (Hancock et al. 2012); also called phage display-derived peptide; phage display-derived free peptide; source: synthetic peptide (Cambridge Peptides Ltd)
B2: Ac-LDPETGELL-NH2 (peptide)
peptide: Ac-LDPETGELL-NH2
notes: phage display-derived peptide DPETGEL extended by two flanking leucines; also called modified phage display-derived peptide; Modified phage display-derived free peptide; source: synthetic peptide (Cambridge Peptides Ltd)

Columns and labels:
[1] = molecular target: Modified Phage CTPR2; assay: ITC; 166.6 uM Keap1 titrated into 16.66 uM CTPR or peptide; 50 mM Tris-HCl 150 mM NaCl 0.5 mM TCEP pH 8; 20 injections of 2 ul; one-site binding model
[2] = molecular target: T1, Keap1 Kelch domain construct (residues 321-624) (UniProt Q14145 321-624); assay: as above; details: both partners purified
T1 construct: Keap1 Kelch domain, residues 321-624; pNIC28-BSA4 vector with a TEV cleavage site after the His-tag; gift of Alex Bullock (Structural Genomics Consortium, Oxford); No TEV cleavage is described in the purification; also called Kelch domain of Keap1; source: E. coli C41, purified (Ni-NTA, size exclusion chromatography)
T1 sequence (Q14145 321-624): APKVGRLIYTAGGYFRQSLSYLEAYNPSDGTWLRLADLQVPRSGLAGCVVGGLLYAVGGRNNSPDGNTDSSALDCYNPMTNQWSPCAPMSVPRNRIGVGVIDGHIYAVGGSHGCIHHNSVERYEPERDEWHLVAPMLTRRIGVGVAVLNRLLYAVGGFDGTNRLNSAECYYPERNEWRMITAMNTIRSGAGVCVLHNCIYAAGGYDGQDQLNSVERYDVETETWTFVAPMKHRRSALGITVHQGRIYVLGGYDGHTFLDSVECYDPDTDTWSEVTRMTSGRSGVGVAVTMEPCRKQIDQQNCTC

Molecule | Kd [1] | Kd [2]
Keap1 Kelch domain construct (residues 321-624) (from UniProt Q14145 321-624) (domain or fragment) | 22 nM | 
B1 |  | 341 nM
B2 |  | 4.65 nM
